The values below come from patent US20200377608A1 (ADAGENE, published 2020).

In this test the target is T1, Recombinant human CD137 protein (human, UniProt Q07011 24-186).
T1 construct: also called CD137 receptor; 4-1BB
The test can be described thus: competition ELISA against biotinylated CD137 ligand on coated human CD137. In general terms: An ELISA detects its analyte on a solid surface through an enzyme-linked reagent.

B1: αCD137-AB1 (antibody, human IgG4 S228P, kappa, V domains shown)
VH: EVQLVESGGGLVQPGGSLRLSCAASGFSLSTGGVGVGWIRQAPGKGLEWLALIDWADDKYYSPSLKSRLTISRDNSKNTLYLQLNSLRAEDTAVYYCARGGSDTVIGDWFAYWGQGTLVTVSS
VL: DIQLTQSPSSLSASVGDRVTITCRASQSIGSYLAWYQQKPGKAPKLLIYDASNLETGVPSRFSGSGSGTDFTLTISSLQPEDFATYYCQQGYYLWTFGQGTKVEIKR
notes: also called AG10131; Hit ID 5365
As for B1, the binding result was “binds”.
